Experimental findings from patent US20060251726 are described below.

Series [1] has as its system T1, stearate-Fus1 peptide (Stearic acid-KLRRVHKNLIPQGIVKLDHR).
T1 sequence: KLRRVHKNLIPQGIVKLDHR

For series [2], the system named is T2, non-stearate Fus1 peptide.
T2 sequence: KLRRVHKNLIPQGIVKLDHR

Regarding “truncated commercial (New England Bio-Labs) cAbl tyrosine kinase (45 kD) containing only the SH2 and SH1 domains”, in series [1], the “Abl tyrosine kinase assay using bacterially purified Abl kinase (GST-CRK phosphorylation)” value was “This peptide was strongly inhibitory in an Abl tyrosine kinase assay using bacterially purified Abl kinase” and the “c-Abl tyrosine phosphorylation of GST-CRK (32P, SDS-PAGE, phosphoimager; 10-55 µM peptide)” value is reported as “the peptide inhibits c-Abl tyrosine phosphorylation of GST-CRK”. Besides, in series [2], the “GST-Crk phosphorylation by the 45 kD Abl tyrosine kinase, 0-60 uM peptide” value was “Non-stearic acid modified Fus1 peptide did not inhibit Abl tyrosine kinase activity” and the “phosphorylation of Gst-Crk by commercial Abl” value was “Non-stearate FUS1 peptide did not inhibit phosphorylation of Gst-Crk by commercial Abl”.
